What was measured:
HeLa Kyoto [1] = assay: solubility change mitosis vs G1/S (difference of NP-40 vs SDS log2 ratios) (log2 ratio difference); higher = more soluble in mitosis
HeLa Kyoto [2] = assay: solubility in G1/S (NP-40 vs SDS abundance) (log2 ratio); higher = more soluble; conditions: cell cycle stage: G1/S
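Wherever solubility change mitosis vs G1/S (difference of NP-40 vs SDS log2 ratios) is given: synchronized HeLa Kyoto cells (double thymidine block for G1/S, nocodazole release for mitosis), protein amounts in NP-40 versus SDS lysates quantified by mass spectrometry, three biological replicates.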
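Wherever solubility in G1/S (NP-40 vs SDS abundance) is given: HeLa Kyoto cells arrested at G1/S by double thymidine block, proteins quantified by TMT10plex mass spectrometry in mild NP-40 versus SDS extracts, three biological replicates.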

Substance	solubility change mitosis (log2) (HeLa Kyoto [1])	solubility in G1/S (log2) (HeLa Kyoto [2])
MIATPLKHSRIYLPPEASSQRRNLPMDAIFFDSIPSGTLTPVKDLVKYQNSSLKLNDHKKNQFLKMTTFNNKNIFQSTMLTEATTSNSSLDISAIKPNKDGLKNKANYESPGKIFLRMKEKVLRDKQEQPSRNSSLLEPQKSGNNETFTPNRVEKKKLQHTYLCEEKENNKSFQSDDSSLRASVQGVPLESSNNDIFLPVKQKIQCQQEKKAPLHNLTYELPTLNQEQENFLAVEARNKTLTRAQLAKQIFHSKESIVATTKSKKDTFVLESVDSADEQFQNTNAETLSTNCIPIKNGSLLMVSDSERTTEGTSQQKVKEGNGKTVPGETGLPGSMKDTCKIVLATPRLHITIPRRSKRNISKLSPPRIFQTVTNGLKKNQVVQLQEWMIKSINNNTAICVEGKLIDVTNIYWHSNVIIERIEHNKLRTISGNVYILKGMIDQISMKEAGYPNYLIRKFMFGFPENWKEHIDNFLEQLRAGEKNREKTKQKQKTGRSVRDIRKSMKNDARENQTDTAQRATTTYDFDCDNLELKSNKHSESPGATELNMCHSNCQNKPTLRFPDDQVNNTIQNGGGDDLSNQELIGKKEYKMSSKKLKIGERTNERIIKSQKQETTEELDVSIDILTSREQFFSDEERKYMAINQKKAYILVTPLKSRKVIEQRCMRYNLSAGTIKAVTDFVIPECQKKSPISKSMGTLENTFEGHKSKNKEDCDERDLLTVNRKIKISNLEKEQMLTSDFKKNTRLLPKLKKIENQVAMSFYKHQSSPDLSSEESETEKEIKRKAEVKKTKAGNTKEAVVHLRKSTRNTSNIPVILEPETEESENEFYIKQKKARPSVKETLQKSGVRKEFPITEAVGSDKTNRHPLECLPGLIQDKEWNEKELQKLHCAFASLPKHKPGFWSEVAAAVGSRSPEECQRKYMENPRGKGSQKHVTKKKPANSKGQNGKRGDADQKQTIKITAKVGTLKRKQQMREFLEQLPKDDHDDFFSTTPLQHQRILLPSFQDSEDDDDILPNMDKNPTTPSSVIFPLVKTPQCQHVSPGMLGSINRNDCDKYVFRMQKYHKSNGGIVWGNIKKKLVETDFSTPTPRRKTPFNTDLGENSGIGKLFTNAVESLDEEEKDYYFSNSDSA [MIS18BP1]	1.22	-1.77
MAWWKAWIEQEGVTVKSSSHFNPDPDAETLYKAMKGIGTNEQAIIDVLTKRSNTQRQQIAKSFKAQFGKDLTETLKSELSGKFERLIVALMYPPYRYEAKELHDAMKGLGTKEGVIIEILASRTKNQLREIMKAYEEDYGSSLEEDIQADTSGYLERILVCLLQGSRDDVSSFVDPALALQDAQDLYAAGEKIRGTDEMKFITILCTRSATHLLRVFEEYEKIANKSIEDSIKSETHGSLEEAMLTVVKCTQNLHSYFAERLYYAMKGAGTRDGTLIRNIVSRSEIDLNLIKCHFKKMYGKTLSSMIMEDTSGDYKNALLSLVGSDP [ANXA8L1]	-0.077	0.415
MNGFTPDEMSRGGDAAAAVAAVVAAAAAAASAGNGTGAGTGAEVPGAGAVSAAGPPGAAGPGPGQLCCLREDGERCGRAAGNASFSKRIQKSISQKKVKIELDKSARHLYICDYHKNLIQSVRNRRKRKGSDDDGGDSPVQDIDTPEVDLYQLQVNTLRRYKRHFKLPTRPGLNKAQLVEIVGCHFRSIPVNEKDTLTYFIYSVKNDKNKSDLKVDSGVH [SAP30]	0.267	0.247
MAAELRMILYEDDSVQVQYVDGSTLQLSPCGSEFLFEKSPPVSAHPLEQPERIRQRTHFVISTYREQLQRALDFRNSSATCPFLSETIIPSERKKHIFIDITEVRWPSLDTDGTMIYMESGIVKITSLDGHAYLCLPRSQHEFTVHFLCKVSQKSDSSAVLSETNNKAPKDKLVEKTGKICIRGNLPGQRLKNKENEFHCQIMKSKETLKKMSCVNGTEGREELPSPGTKHTCVYTWVKQCWSVAACPEEWKYPLSLALHFHNKISNMSKIDAHITQSRFLTSDISEERGKVVSVLPRALSLSCPVPHLHRWNFCDSLLQRQSDEYSYPELVKMVWYKGVTYRLTHQNMNSIEIYSGDGSVFKSEGAYFGNYFTYYSIQEGSGKREEKTYSVNNLPPDRPGSPFTVGSLIKQATRILQHCVKMRLSLSHNYRICCWKMVPGINDSNILPLVLKESLIPSVGRFLAYSDDKVHAIFLDGITLTLNWNFSSPIEKRQVNQGLNLGWCKLTFPDGQEQLIQIEHPEPYERYVTTVTSWCRRLTQTSPREMPTHSSSSVLQENWSVASELEKIQKFNLLLENSGILNQISNKKNEQQSFDHYKPGSSETLLGEVNENRVSIALKKTSEILHDIDCLLSNSKK [C5ORF34]	-0.0287	-0.136
MDLVGVASPEPGTAAAWGPSKCPWAIPQNTISCSLADVMSEQLAKELQLEEEAAVFPEVAVAEGPFITGENIDTSSDLMLAQMLQMEYDREYDAQLRREEKKFNGDSKVSISFENYRKVHPYEDSDSSEDEVDWQDTRDDPYRPAKPVPTPKKGFIGKGKDITTKHDEVVCGRKNTARMENFAPEFQVGDGIGMDLKLSNHVFNALKQHAYSEERRSARLHEKKEHSTAEKAVDPKTRLLMYKMVNSGMLETITGCISTGKESVVFHAYGGSMEDEKEDSKVIPTECAIKVFKTTLNEFKNRDKYIKDDFRFKDRFSKLNPRKIIRMWAEKEMHNLARMQRAGIPCPTVVLLKKHILVMSFIGHDQVPAPKLKEVKLNSEEMKEAYYQTLHLMRQLYHECTLVHADLSEYNMLWHAGKVWLIDVSQSVEPTHPHGLEFLFRDCRNVSQFFQKGGVKEALSERELFNAVSGLNITADNEADFLAEIEALEKMNEDHVQKNGRKAASFLKDDGDPPLLYDE [RIOK3]	-0.00535	0.0978
MASGDLYEVERIVDKRKNKKGKWEYLIRWKGYGSTEDTWEPEHHLLHCEEFIDEFNGLHMSKDKRIKSGKQSSTSKLLRDSRGPSVEKLSHRPSDPGKSKGTSHKRKRINPPLAKPKKGYSGKPSSGGDRATKTVSYRTTPSGLQIMPLKKSQNGMENGDAGSEKDERHFGNGSHQPGLDLNDHVGEQDMGECDVNHATLAENGLGSALTNGGLNLHSPVKRKLEAEKDYVFDKRLRYSVRQNESNCRFRDIVVRKEEGFTHILLSSQTSDNNALTPEIMKEVRRALCNAATDDSKLLLLSAVGSVFCSGLDYSYLIGRLSSDRRKESTRIAEAIRDFVKAFIQFKKPIVVAINGPALGLGASILPLCDIVWASEKAWFQTPYATIRLTPAGCSSYTFPQILGVALANEMLFCGRKLTAQEACSRGLVSQVFWPTTFSQEVMLRVKEMASCSAVVLEESKCLVRSFLKSVLEDVNEKECLMLKQLWSSSKGLDSLFSYLQDKIYEV [CDYL2]	0.436	-1.07
MSNGYSTDENFRYLISCFRARVKMYIQVEPVLDYLTFLPAEVKEQIQRTVATSGNMQAVELLLSTLEKGVWHLGWTREFVEALRRTGSPLAARYMNPELTDLPSPSFENAHDEYLQLLNLLQPTLVDKLLVRDVLDKCMEEELLTIEDRNRIAAAENNGNESGVRELLKRIVQKENWFSAFLNVLRQTGNNELVQELTGSDCSESNAEIENLSQVDGPQVEEQLLSTTVQPNLEKEVWGMENNSSESSFADSSVVSESDTSLAEGSVSCLDESLGHNSNMGSDSGTMGSDSDEENVAARASPEPELQLRPYQMEVAQPALEGKNIIICLPTGSGKTRVAVYIAKDHLDKKKKASEPGKVIVLVNKVLLVEQLFRKEFQPFLKKWYRVIGLSGDTQLKISFPEVVKSCDIIISTAQILENSLLNLENGEDAGVQLSDFSLIIIDECHHTNKEAVYNNIMRHYLMQKLKNNRLKKENKPVIPLPQILGLTASPGVGGATKQAKAEEHILKLCANLDAFTIKTVKENLDQLKNQIQEPCKKFAIADATREDPFKEKLLEIMTRIQTYCQMSPMSDFGTQPYEQWAIQMEKKAAKEGNRKERVCAEHLRKYNEALQINDTIRMIDAYTHLETFYNEEKDKKFAVIEDDSDEGGDDEYCDGDEDEDDLKKPLKLDETDRFLMTLFFENNKMLKRLAENPEYENEKLTKLRNTIMEQYTRTEESARGIIFTKTRQSAYALSQWITENEKFAEVGVKAHHLIGAGHSSEFKPMTQNEQKEVISKFRTGKINLLIATTVAEEGLDIKECNIVIRYGLVTNEIAMVQARGRARADESTYVLVAHSGSGVIEHETVNDFREKMMYKAIHCVQNMKPEEYAHKILELQMQSIMEKKMKTKRNIAKHYKNNPSLITFLCKNCSVLACSGEDIHVIEKMHHVNMTPEFKELYIVRENKALQKKCADYQINGEIICKCGQAWGTMMVHKGLDLPCLKIRNFVVVFKNNSTKKQYKKWVELPITFPNLDYSECCLFSDED [IFIH1]	-0.0235	-0.109
PRR14L	0.0491	-0.0161
